B1: Ras-related protein Rab-38 (Homo sapiens), P57729 (parent)
chain: MQAPHKEHLYKLLVIGDLGVGKTSIIKRYVHQNFSSHYRATIGVDFALKVLHWDPETVVRLQLWDIAGQERFGNMTRVYYREAMGAFIVFDVTRPATFEAVAKWKNDLDSKLSLPNGKPVSVVLLANKCDQGKDVLMNNGLKMDQFCKEHGFVGWFETSAKENINIDEASRCLVKHILANECDLMESIEPDVVKPHLTSTKVASCSGCAKS

Variants of: B1
Conditions: with lrrk2_human LRRK2, Q5S007
Sequence of lrrk2_human LRRK2, Q5S007 (Q5S007 whole entry): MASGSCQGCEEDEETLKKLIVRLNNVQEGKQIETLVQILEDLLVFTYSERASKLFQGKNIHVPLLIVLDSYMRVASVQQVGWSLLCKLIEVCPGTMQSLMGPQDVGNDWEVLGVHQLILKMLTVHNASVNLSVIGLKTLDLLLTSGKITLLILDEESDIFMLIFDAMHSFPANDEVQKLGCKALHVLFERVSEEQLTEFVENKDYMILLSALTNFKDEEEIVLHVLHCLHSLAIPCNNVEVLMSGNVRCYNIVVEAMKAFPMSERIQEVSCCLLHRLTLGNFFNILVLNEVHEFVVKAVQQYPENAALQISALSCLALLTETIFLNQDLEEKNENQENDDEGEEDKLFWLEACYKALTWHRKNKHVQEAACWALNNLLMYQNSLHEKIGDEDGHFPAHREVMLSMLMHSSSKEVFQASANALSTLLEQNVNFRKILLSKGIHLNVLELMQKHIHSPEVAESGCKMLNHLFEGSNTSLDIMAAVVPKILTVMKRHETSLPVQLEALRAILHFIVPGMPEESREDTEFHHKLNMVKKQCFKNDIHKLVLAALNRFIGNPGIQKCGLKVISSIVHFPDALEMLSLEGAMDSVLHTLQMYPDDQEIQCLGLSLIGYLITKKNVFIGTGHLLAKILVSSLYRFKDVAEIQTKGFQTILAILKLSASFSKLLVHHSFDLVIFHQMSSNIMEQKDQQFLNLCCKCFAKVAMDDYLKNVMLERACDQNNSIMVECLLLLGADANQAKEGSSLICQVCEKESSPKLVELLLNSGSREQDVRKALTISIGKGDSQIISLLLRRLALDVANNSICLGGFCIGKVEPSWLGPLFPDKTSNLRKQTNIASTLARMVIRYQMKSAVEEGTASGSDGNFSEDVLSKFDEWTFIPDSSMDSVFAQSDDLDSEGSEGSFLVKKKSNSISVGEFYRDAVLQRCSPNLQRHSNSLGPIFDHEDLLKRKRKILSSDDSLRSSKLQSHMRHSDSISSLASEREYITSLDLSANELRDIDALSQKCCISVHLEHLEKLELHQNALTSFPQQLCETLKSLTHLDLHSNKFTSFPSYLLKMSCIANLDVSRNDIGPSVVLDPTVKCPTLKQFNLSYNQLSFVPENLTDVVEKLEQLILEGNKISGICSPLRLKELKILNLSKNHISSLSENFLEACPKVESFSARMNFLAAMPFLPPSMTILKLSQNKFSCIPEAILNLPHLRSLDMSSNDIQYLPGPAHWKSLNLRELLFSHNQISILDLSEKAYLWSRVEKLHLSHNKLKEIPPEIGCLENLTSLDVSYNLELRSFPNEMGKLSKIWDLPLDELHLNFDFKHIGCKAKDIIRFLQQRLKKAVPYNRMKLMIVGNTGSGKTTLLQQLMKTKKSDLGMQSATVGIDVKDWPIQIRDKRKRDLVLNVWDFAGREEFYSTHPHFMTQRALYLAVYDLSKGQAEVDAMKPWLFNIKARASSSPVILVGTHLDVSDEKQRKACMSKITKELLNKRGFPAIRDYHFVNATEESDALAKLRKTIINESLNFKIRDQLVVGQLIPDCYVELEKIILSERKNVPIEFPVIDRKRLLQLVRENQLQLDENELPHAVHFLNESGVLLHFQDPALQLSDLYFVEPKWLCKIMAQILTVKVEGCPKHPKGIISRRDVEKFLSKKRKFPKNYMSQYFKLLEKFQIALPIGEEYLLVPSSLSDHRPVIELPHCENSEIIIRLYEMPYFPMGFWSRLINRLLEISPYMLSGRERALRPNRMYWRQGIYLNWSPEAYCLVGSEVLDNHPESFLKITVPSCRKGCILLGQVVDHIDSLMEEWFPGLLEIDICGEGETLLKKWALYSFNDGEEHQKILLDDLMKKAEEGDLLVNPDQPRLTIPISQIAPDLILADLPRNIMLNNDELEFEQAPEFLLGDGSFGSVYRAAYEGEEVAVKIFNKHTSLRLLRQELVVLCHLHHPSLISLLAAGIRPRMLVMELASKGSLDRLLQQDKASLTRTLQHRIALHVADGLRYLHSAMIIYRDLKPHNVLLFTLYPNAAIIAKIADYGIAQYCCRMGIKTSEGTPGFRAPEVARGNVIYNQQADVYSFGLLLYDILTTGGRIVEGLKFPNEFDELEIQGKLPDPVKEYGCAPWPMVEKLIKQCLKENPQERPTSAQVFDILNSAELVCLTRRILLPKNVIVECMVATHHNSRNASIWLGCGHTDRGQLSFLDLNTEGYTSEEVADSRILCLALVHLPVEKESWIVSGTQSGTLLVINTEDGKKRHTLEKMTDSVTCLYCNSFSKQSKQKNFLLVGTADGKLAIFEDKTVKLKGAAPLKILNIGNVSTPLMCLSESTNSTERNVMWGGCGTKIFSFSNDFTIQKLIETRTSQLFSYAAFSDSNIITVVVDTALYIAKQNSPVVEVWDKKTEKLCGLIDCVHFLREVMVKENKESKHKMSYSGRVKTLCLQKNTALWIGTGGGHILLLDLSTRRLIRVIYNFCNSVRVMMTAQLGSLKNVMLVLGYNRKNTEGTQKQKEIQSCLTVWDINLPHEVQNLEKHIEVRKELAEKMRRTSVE

Row | Variant | effect of a mutation on the interaction
1 | I42A | with no effect
2 | I42E | with no effect
3 | R39Q | decreasing interaction strength
4 | R77Q;R81Q | with no effect

Reference: IntAct's records for PubMed 31552791
